In the DeepSol protein solubility set:

Test: soluble on expression in E. coli; label from the status in PepcDB or PDB records

Sequence	soluble on expression in E. coli
MAHHHHHHMSPASLAKSSQDKTAPSTEGTTRFGDSSPPVAAAASPAMYGQPWNTPTTLHSLVESVTRESGEAAAARAGTSKSTVPRLAVSRSLPCSTTVVQETVTNTGRVVSTVATGAAAPSSLLTGTDTPTPLWRSTATTAAVRAEHLRELEDFLEQRGGRGTSMEGRHKVIQKALSLLPVVYPPLAKVAEPMQRYIEDVAASLRRAATEKGRSAAASGERAVRAVRSVFRREDTRAHAGEEAGRGGGKGGARCRLSPCVQERDVELMAVKEQLMQRMNTCEKTEDQFRDFRHLIASVFNTNQQLNLRIEQLEEVLARHRIDLPPASEEMMAFQTSLDGQRSFVPQASTVDGDGDDDSSSGG	not soluble
MNLSNHFLIAMPDMEDAFFSQSVVYICKHDEDGALGIAINKPSPITMDMIFSATGKNIPMRMQHDSVMMGGPVQVERGYVVHTPIGNWQSSIGVSDNIALTSSRDVIENISREGAVDKALISIGYSSWSKGQLERELADNAWLTVPADEHILFDIPYEHRYAAAFAKLGIDPLALFSGAGHA	not soluble
MGFKRLLASLGAGGASVETVLTEVNVVPGGVVQGEVRIQGGSVNQAIEGLSVGLQAKVEVEGHDDQEYKQDIEFAKLSLGGAFELQAGAVHAVPFGLEIPWETPITMIDGQALRGMNIGVTTELEIARAVDSGDLDPVNVHPLPAQKAILDAFVQLGFRFKNADMERGHIRGTRQRLPFYQEIEFFPPSQYRGLNQVELSFVADDREMDVILEMDKKPGLFSEGSDSYRSFQVGLNDFQGTDWTAYLHQWLSEVGSKRSWF	not soluble
MPTSNTAFLIQNLPASRTAPHYRAGLDPVKGGLALQRSGGRVYISLLMGKRGFLRREASPKEVLEHCLRLAREVAPPTPKGKRGRPWRYSHALYLALLLFRAFFHLTYRETEASLQDLMEGPFPSHQSLARYALKHLDPKLLEALLERLSRELEAHLAPESSPEGEAASDEAPAHLAALSPP	soluble
AIAGSLGIVTNDPSPYSVHFHLTGFGRFHRVSQNPTEFLVKQFVSFCEERRGLHEAARVVTTTVATTSVKGAQQALDEVYGKLHRDKSVRNVIIHCGVDASANCFRLEERAYNEASFSCPDESGWQPKVVPIDDTKPVDSFLVTSINIRQAVEELEKKGFHVKSSEDAGRFLCNWIYYQSLTRAQCEFSVKVVFVHFPPIQDSQEIQSYCEFLLQLLNVITTHELSSIDE	soluble
MAHHHHHHMRAEIPGVVPAVVSQVSEHQLPHLYPRHTAVTDSTALPREKSTLQRTDTTDSQLFSLADLQLARGNTRRPSRSRPTSPIRKDRIPRPPSVEFDVHLEVPRPHIRVSALPKHVMWPLPIPLPNLGNTCYMNSVVQCLRQSPSLALALEQCQLNAESHPAAAAMLNFFRMSEGDPKEFLVTFKSEAAKYNDEFKDFTQADAHEFLRTFLSVVHNEINTAPRAKLHIDDMGYVGKEDEETAFGMWRDQFACFDKSPIYDLFGGTTLGTCFCNSCENSSRTFEAFLDLSLPIGHEMPFGANLEAILQANFVEGKAEKMDGSNRIYCSRCKRLRSGSRCVVVRQWPKLLVLHLKRFDEYGKKNLVNVIYPETFMTGGEKSLRYSLYGVLMHSGTEMSGHYTSYVRVAFGEWYLCNDGAITPSRSVDVMQELEKAYILFYAEVPQVEPTFF	not soluble
MRPVLLLCCLFLSATAQAEDCSPQTSVGSWCELPLAALHPTQQNVGLLQVEDDQAKLAGKKPKALERYLRKKEIPVVIGPGGRFYLTDRHHLSSALWRLDPKQGVPVKVIGRLPQASDFWEKMQENHWVWLHDARGAEIPPEALPDALAGLGDDPYRALAGYAEDENAFDKDRQSYFIEFHWARYFGERMHWRPISRATLPDDLKQALRLACEPAARELPGYRQDCPH	soluble
MPFPFSRLFSFGVEHETGYVSRQSGRGRVYKGGGYSPFTITFQVSTHRSTMSDVTVAETPAVKTPTKAPKAPKSKTTKEPKAKVAAAHPPFINMVTAAISSLKERKGSSKIAILKYITANYKVGDQLTKINSRLRAALNKGVASKALVQSVGNGASGRFRVAEKAAATKKPVAKKPVAKKAATGEKKAKKTTVAKKTGDKVKKAKSPKKIAKPAAKKVAKSPAKKAAPKKAPAKKAAAPKA	not soluble
KIGYGKANPTTRLWVGGLGPNTSLAALAREFDRFGSIRTIDHVKGDSFAYIQYESLDAAQAACAKMRGFPLGGPDRRLRVDFAK	soluble
MNPLSIVIITLNEENRIGRLLEDLTEQTFKNFEVIVVDSNSSDATCEVAQSFSASIPDLTVHKMDKQGVSLGRNTGASLAKHERLLFLDADVRLSPDFLTKALTQLNEKGLEVAGVYMGSKGLPVAHKLGYMTFNIGLFLTQFAFPTAVGACIFSTRRAHKDLLGFDENITLCEDCDYVKRASRTWRFRFLPMTFEFDPRRLEQDGFLRMGYTYLKANVRRFLFGEMRNNEMEYKFGHYSNQKLEHHHHHH	soluble
MGKLYVVPTPVGNLEDMTFRAIRVLKEVDLILAEDTRTSGILLKHFEIKNAMQSHHKFNEHKTVESVVNRIKAGETVALISDAGTPGISDPGFLVVRECVRNGIEVQCLPGATAFVPALVASGLPNEKFCFEGFLPQKKGRQTRLKALAEEHRTMVFYESPHRLLKTLTQFAEYFGTERQATVSREISKLHEETVRGSLAELIEHFTATEPRGEIVIVLAGIDD	soluble
SDRPLSVHLNLGQKGNRKTSCPIKINQFEGHFMKLQADSNYLLSKEYEELKDVGRNQSCDIALLPENRGKNRYNNILPYDATRVKLSNVDDDPCSDYINASYIPGNNFRREYIVTQGPLPGTKDDFWKMVWEQNVHNIVMVTQCVEKGRVKCDHYWPADQDSLYYGDLILQMLSESVLPEWTIREFKICGEEQLDAHRLIRHFHYTVWPDHGVPETTQSLIQFVRTVRDYINRSPGAGPTVVHCSAGVGRTGTFIALDRILQQLDSKDSVDIYGAVHDLRLHRVHMVQTECQYVYLHQCVRDVLRARKLRSEQ	soluble
GSHMEEAKGPVKHVLLASFKDGVSPEKIEELIKGYANLVNLIEPMKAFHWGKDVSIENLHQGYTHIFESTFESKEAVAEYIAHPAHVEFATIFLGSLDKVLVIDYKPTSVSL	soluble
MARDALTDALTVGELRRRVHALVLGKRQRVYSGAMFLVEVVHHPELSAMLGLEDNKLLLAMIAQRLQMQSDYFQVARHSSDSFMVWAPDLDPRSARDVAPEVLDALSQPYELRGQPLIVGFRLSGALYAQHGACFDELERSLHIAMLHLDESAGAAWNMFEPSMLEHQRHYQGLEHHHHHH	not soluble
MVMRYSLKQLAVFDAVATTGSVSQAAELLSLTQSATSMSLSQLEKMLGRSLFERHGKRMALTHWGVWLRPKAKKLIHDAQQIELGFYDQHLISGEISLGASQTAAEHLVPNLISNIDNDFPEIRISLGVKNTSGIIEGVLDYKYELGIIEGRCDDSRIHQEVFCTDHLIIVAAAHHPFAKHEKVSLAQLEQAKWVLREHGAGTRTIFDSAIHGKIPDLDVWREYEYVPVLRTLVANGQYLSCLPYLDVVKYIERGELVALNVPELNMERTLSFIWRSSMDQNPISDCIRREGIRMIKNHNVIR	not soluble
MAHHHHHHMHRSLLRCALPGEPMLESYRSGVLRCLRCHLGAMRPDFPVGSAATEVAALASTATTPLTCSRRAFRQQGAAHPNTPDATEAAELEKDWQALKTYGMIGGFALLCVATLWYGSRQAKQRYFGAEGSARVSVETRGRPALGGPFVLVNTKGEPVSQAEFLGSWAFFYFGFTHCPEICPVELNRMSHVVDAVRAARPQERIAPLFVSCDPRRDSLEAIDEYLSVFHPDFIGLVGTPKQVNDACRSYRIYYSIPTDEDAAQEDYLIDHSIAIFLFDPQGRFVDFFGNRYDEREITEKVLHYMSEYAKDPTWTNW	not soluble
MGSDKIHHHHHHMKQIAVVSGKGGTGKTTFTASLGVLLENSLLADCDVDASNLYILFPGDPVEEHEYYRGKKAVIDQEKCDRCGICERVCRFDAIIPGEKYGVDQYACEGCNACVVSCPRNAITLVQSLAGRYFFAWSGGKPIVYARLSPGEENSGGLVAEVRKLALEKAKELKRDYVIIDGAPGIGCSATSSIVGVNYVVVVTEPTMSGLHDLKRIVETLKCLKREFGIVINKYDINSVVSREIEDYCLSEGLDLLGKIPFDETVVRASVECKPVVTYENSPAAESIKKIVEKIIEKIS	not soluble
MVLTLDLADPAQPEHVFIVEDSRGATELKLYKSHYTIGKADSCDIRLHSIYASRQHATLVRFLTENGEVRYRLIDGDPETSRRSANGTYVNNRSITECDLKHYDQILFGALEHHHHHH	not soluble
